The source of these data is PMC4190666.

The test concerns the target TAB1 (full length, 60-kDa isoform) (human (endogenous in primary CD4+ T cells)) (UniProt Q15750). Nature of the test: co-IP.
UniProt Q15750, sequence (Q15750 whole entry, canonical isoform): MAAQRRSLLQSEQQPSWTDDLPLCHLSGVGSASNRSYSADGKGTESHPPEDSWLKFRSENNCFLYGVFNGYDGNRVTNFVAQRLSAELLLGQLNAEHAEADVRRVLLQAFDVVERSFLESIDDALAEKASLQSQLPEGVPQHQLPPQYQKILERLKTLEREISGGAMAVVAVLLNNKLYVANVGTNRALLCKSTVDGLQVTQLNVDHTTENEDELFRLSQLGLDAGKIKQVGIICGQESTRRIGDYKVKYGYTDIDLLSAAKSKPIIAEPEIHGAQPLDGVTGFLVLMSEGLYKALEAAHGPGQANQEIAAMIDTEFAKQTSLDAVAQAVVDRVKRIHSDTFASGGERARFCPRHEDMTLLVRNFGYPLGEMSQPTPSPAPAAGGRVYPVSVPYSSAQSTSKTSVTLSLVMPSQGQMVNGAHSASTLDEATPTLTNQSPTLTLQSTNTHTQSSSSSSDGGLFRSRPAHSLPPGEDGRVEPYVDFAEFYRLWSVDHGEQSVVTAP

With “p38 MAP kinase (total p38) (from UniProt Q16539 1-360) (enzyme)”, the fold increase of p38 in TAB1 immunoprecipitates with A-769662 over DMSO control lay in the range of 2.5 to 3 fold.
